From publication PMC6182170, “A protein–protein interaction underlies the molecular basis for substrate recognition by an adenosine-to-inosine RNA-editing enzyme”

Biological target: T1, ADR-1 WT (Caenorhabditis elegans, UniProt Q9U3D6 1-964)
T1 sequence: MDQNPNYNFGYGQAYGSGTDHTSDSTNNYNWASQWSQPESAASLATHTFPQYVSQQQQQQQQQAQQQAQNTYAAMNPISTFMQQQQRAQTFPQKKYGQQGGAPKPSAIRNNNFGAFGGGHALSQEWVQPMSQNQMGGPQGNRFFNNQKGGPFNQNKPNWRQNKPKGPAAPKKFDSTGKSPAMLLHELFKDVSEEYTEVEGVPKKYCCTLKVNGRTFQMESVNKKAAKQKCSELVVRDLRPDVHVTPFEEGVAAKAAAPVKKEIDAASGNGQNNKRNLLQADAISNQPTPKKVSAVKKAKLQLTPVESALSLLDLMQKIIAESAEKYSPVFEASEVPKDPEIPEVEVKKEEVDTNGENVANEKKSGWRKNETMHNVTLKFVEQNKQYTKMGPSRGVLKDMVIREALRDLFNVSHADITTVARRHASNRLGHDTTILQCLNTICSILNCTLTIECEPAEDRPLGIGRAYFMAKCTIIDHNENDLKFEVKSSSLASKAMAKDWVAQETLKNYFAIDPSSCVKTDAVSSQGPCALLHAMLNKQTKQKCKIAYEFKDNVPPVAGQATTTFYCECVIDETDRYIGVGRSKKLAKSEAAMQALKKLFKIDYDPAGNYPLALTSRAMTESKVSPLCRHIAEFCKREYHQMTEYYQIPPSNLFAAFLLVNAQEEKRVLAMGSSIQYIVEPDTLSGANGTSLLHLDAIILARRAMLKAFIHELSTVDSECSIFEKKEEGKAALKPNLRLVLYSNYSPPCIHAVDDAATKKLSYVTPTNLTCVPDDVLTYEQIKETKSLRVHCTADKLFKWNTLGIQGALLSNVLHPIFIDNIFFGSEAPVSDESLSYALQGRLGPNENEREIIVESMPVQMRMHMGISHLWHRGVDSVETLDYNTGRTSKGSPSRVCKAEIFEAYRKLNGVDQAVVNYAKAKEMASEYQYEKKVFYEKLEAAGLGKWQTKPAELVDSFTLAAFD
Experiment: EMSA; apparent Kd; EMSA: 20 pM dsRNA, 50 mM KCl, 10 mM Tris-HCl pH 8.0, 10% glycerol, 1 mM MgCl2, 0.5 mM DTT, on ice 30 min; native 6% gel, 0.5x TBE, 4 C
Details: protein: recombinant; tags: N-terminal 6xHis (TEV site); label: 5' 32P on ssRNAs (PNK); imperfect duplex; printed strands 45 and 46 nt

B1: lam-2 3'UTR 46 bp dsRNA (dsRNA)
RNA 1: AGACACACAUACAAAAUUUACAAAAAUUGUUAAUUGACAAAAUAC
RNA 2: GUGUUUUGCCAAUUAACGAUUUUUUGUAAAUUUUAUAUGUGUCUCU
Kd: 1.75 ± 0.15 nM
